The text below walks through data of patent US20050182242A1, “Global analysis of protein activities using proteome chips” (priority 2001, published 2005).

The experiment deals with T1, calmodulin (Homo sapiens, UniProt P0DP23).
T1 construct: purchased CalBiochem, USA
The experiment in a line: Yeast proteome chip probed with biotinylated calmodulin. The class given is binding. Conditions: biotinylated calmodulin in the presence of calcium. From the text:
To test for protein-protein interactions, the yeast proteome was probed with calmodulin (11). Calmodulin is a highly conserved calcium-binding protein involved in many calcium-regulated cellular processes and has many known physical partners (Hook et al., 2001, Annu. Rev. Pharmacol. Toxicol. 41:471). The calmodulin probe was biotinylated, and bound probe was detected using Cy3-labeled streptavidin. As a control, the yeast proteome was probed with Cy3-labeled streptavidin alone.
Generally, protein-protein interactions can be assayed as follows. Blocked proteome chips are washed three to five times in PBS buffer, and the extra liquid on the glass surface is removed by tapping the slides vertically on a KIMWIPE™. 200 ∞l of biotinylated protein probe is added to the proteome chip and immediately covered by a hydrophobic plastic cover slip (GRACE BIO-LABS™, USA). After trapped air bubbles are removed, the chip is incubated in a humidity chamber at room temperature (RT) for one hour. To remove the cover slip, the chip is immersed into large volume of PBS buffer (>50 ml), and the slip should float away. The chip is then moved to a second PBS bath (>50 ml) and washed 3×5 min with shaking at RT. After removing extra liquid on the surface of the chip, at least 150 μl of Cy3- or Cy5-conjugated streptavidin (PIERCE™, USA; 1:2000 to 1:4000 dilution) is added to the surface and covered by a hydrophobic plastic cover slip (GRACE BIO-LABS™, USA). The chip is incubated for greater than 30 min in the dark at RT. The chip is then washed as described above. To completely remove the liquid on the chip, the chip is spun to dryness at 1500-2000 rpm for 5-10 min at RT.
• 1. S. Fields, Y. Kohara, D. J. Lockhart, Proc. Natl. Acad. Sci. 96, 8825 (1999); A. Goffeau et al., Science 274, 563 (1996). • 2 P. Ross-Macdonald et al., Nature 402, 413 (1999); J. L., DeRisi, V. R. Iyer, P. O. Brown, Science 278, 680 (1997); E. A. Winzeler et al., Science 285, 901 (1999). P. Uetz et al., Nature 403, 623 (2000); T. Ito et al., Proc. Natl. Acad. Sci. USA. 97, 1143 (2000) • 3 H. Zhu, M. Snyder, Curr. Opin. Chem. Biol. 5, 40 (2001). • 4 M. R. Martzen et al., Science 286, 1153 (1999). • 5 H. Zhu et al., Nat. Genet. 26, 283 (2000). • 6 G. MacBeath, S. L. Schreiber, Science 289, 1760 (2000). • 7 A. Caveman, J. Cell Sci. 113, 3543 (2000). • 8 P. Arenkov et al., Anal. Biochem 278, 123 (2000). • 9 D. A. Mitchell, T. K. Marshall, R. J. Deschenes, Yeast 9, 715 (1993). The expression vector pEGH was created by inserting an RGS-HisX6 epitope tag between the GST gene and the polycloning site of pEG(KG). The yeast ORFs were cloned using the strategy described previously (5), except every step was done in a 96-well format. Plasmid DNAs confirmed by DNA sequencing were reintroduced into both yeast (Y258) and E. coli (DH5a). […] 0.1 mM calcium was present in buffers in all subsequent steps. The chip was washed three times with PBS at RT. Cy3-conjugated streptavidin (Jackson IR, USA) (1:5000 dilution) was added to the chip and incubated for 30 min at RT. After extensive washing, the chip was spun dry and scanned using a microarray scanner; the data was subsequently acquired with the GENEPIX™ array densitometry software (Axon, USA). • 12 S. S. Hook, A. R. Means, Annu. Rev. […]

B1: MY04: yeast class V myosin heavy chain, GST-HisX6 fusion (protein, UniProt P32492 1-1471, looked up)
Myosin-4: MSFEVGTKCWYPHKEQGWIGGEVTKNDFFEGTFHLELKLEDGETVSIETNSFENDDDHPTLPVLRNPPILESTDDLTTLSYLNEPAVLHAIKKRYMNGQIYTYSGIVLIAANPFDKVDHLYSREMIQNYSSKRKDELEPHLFAIAEEAYRFMVHEKANQTVVVSGESGAGKTVSAKYIMRYFASVQESNNREGEVEMSQIESQILATNPIMEAFGNAKTTRNDNSSRFGKYLQILFDENTTIRGSKIRTYLLEKSRLVYQPETERNYHIFYQILEGLPEPVKQELHLSSPKDYHYTNQGGQPNIAGIDEAREYKITTDALSLVGINHETQLGIFKILAGLLHIGNIEMKMTRNDASLSSEEQNLQIACELLGIDPFNFAKWIVKKQIVTRSEKIVTNLNYNQALIARDSVAKFIYSTLFDWLVDNINKTLYDPELDQQDHVFSFIGILDIYGFEHFEKNSFEQFCINYANEKLQQEFNQHVFKLEQEEYVKEEIEWSFIEFSDNQPCIDLIENKLGILSLLDEESRLPSGSDESWASKLYSAFNKPPSNEVFSKPRFGQTKFIVSHYAVDVEYEVEGFIEKNRDSVSLGHLDVFKATTNPIFKQILDNRELRSDDAPEEQNTEKKIMIPARLSQKKPTLGSMFKKSLGELMAIINSTNVHYIRCIKPNSEKKPWEFDNLMVLSQLRACGVLETIRISCAGFPSRWTFDEFVQRYFLLTDYSLWSGILYNPDLPKEAIVNFCQSILDATISDSAKYQIGNTKIFFKAGMLAFLEKLRTNKMNEICIIIQKKIRARYYRLQYLQTMESIKKCQSQIRSLLVRTRVDHELKTRAAILLQTNIRALWKREYYRAAIGQIIKLQCTCKRKLILDSVNRKFMLMAAVIIQSYIRSYGHKTDYRTLKRSSILVQSAMRMQLARRRYIVLQKEVEERNIRASYGIGLLEEAIEFKNSFILNLEMLNDSYTRLTQLLQGDLSNIPSKQRQEYETIVNGYNDKISKLKTLQVEIMNTLNKKNALKERKKKQSSLIQSHMQSLAAIKGNKPSRLSDEVKSMKQELAFIENVIAQDFTTTYSANKNDKVKGLGIAGQQVKPKLVNVIRRESGNPDLLELLMDLNCYTLEVTEGYLKKVNVTEVNGDNVLGPIHVITTVVSSLVRNGLLIQSSKFISKVLLTVESIVMSLPKDETMLGGIFWLSNLSRLPAFAANQKTLYEANGGDEKDKLTLIYLNDLENETLKVFDKIYSTWLVKFMKHASAHIEIFDMVLNEKLFKNSGDEKFAKLFTFLNEFDAVLCKFQVVDSMHTKIFNDTLKYLNVMLFNDLITKCPALNWKYGYEVDRNIERLVSWFEPRIEDVRPNLIQIIQAVKILQLKISNLNEFKLLFDFWYALNPAQIQAILLKYKPANKGEAGVPNEILNYLANVIKRENLSLPGKMEIMLSAQFDSAKNHLRYDTSAITQNSNTEGLATVSKIIKLDRK
modifications: GST-HisX6 tag
notes: yeast class V myosin heavy chain, GST-HisX6 fusion
In the case of B1, the calmodulin binding result is “identified”.

B2: CMK1: yeast calcium/calmodulin-dependent serine/threonine protein kinase, GST-HisX6 fusion (protein)
chain: MDDKVSEKESSPKQTEEDSEGKMAHVQPASYVNKKKYVFGKTLGAGTFGVVRQAKNTETGEDVAVKILIKKALKGNKVQLEALYDELDILQRLHHPNIVAFKDWFESKDKFYIITQLAKGGELFDRILKKGKFTEEDAVRILVEILSAVKYMHSQNIVHRDLKPENLLYIDKSDESPLVVADFGIAKRLKSDEELLYKPAGSLGYVAPEVLTQDGHGKPCDIWSIGVITYTLLCGYSAFRAERVQDFLDECTTGEYPVKFHRPYWDSVSNKAKQFILKALNLDPSKRPTAAELLEDPWIICTELKTHNLLPGLKEGLDARQKFRNSVERVRLNMKIQKLRDLYLEQTESDSDFDEGSQANGSVPPLKATDTSQLSKKLSEEEQSKLKSELTSKAFAQLVNTVLAEKEKFLNINRVCSSDSDLPGSDIKSLDEAKEKPEGKDTKTEE
modifications: left off: a dimerising Fc or GST
notes: yeast calcium/calmodulin-dependent serine/threonine protein kinase, GST-HisX6 fusion
In the case of B2, the calmodulin binding entry was “identified”.
